Experimental data from patent publication US20210355194A1 (published 2021).
Read-outs that look alike come from different tables or passages of the source.

Key:
[1] = biological target: T1, SARS-CoV-2 membrane protein (SARS-CoV-2, UniProt P0DTC5 1-222); experiment: SPR
[2] = biological target: T1, SARS-CoV-2 membrane protein; experiment: SPR; remark: listed apart in the source
[3] = biological target: T2, SARS-CoV-2 S protein trimer (SARS-CoV-2, UniProt P0DTC2 14-1208); experiment: SPR
SARS-CoV-2 S1 protein [4] = biological target: T3, SARS-CoV-2 S1 protein (SARS-CoV-2, UniProt P0DTC2 16-685); experiment: SPR
[5] = biological target: T2, SARS-CoV-2 S protein trimer; experiment: SPR; remark: listed apart in the source
SARS-CoV-2 S1 protein [6] = biological target: T3, SARS-CoV-2 S1 protein; experiment: SPR; remark: listed apart in the source
SARS-CoV-2 S1 RBD = SARS-CoV-2 S1 RBD (SARS-CoV-2, UniProt P0DTC2 319-537); experiment: competition
ACE2 = ACE2 (human, UniProt Q9BYF1 18-740); experiment: SPR
ACE2, sequence (Q9BYF1 18-740): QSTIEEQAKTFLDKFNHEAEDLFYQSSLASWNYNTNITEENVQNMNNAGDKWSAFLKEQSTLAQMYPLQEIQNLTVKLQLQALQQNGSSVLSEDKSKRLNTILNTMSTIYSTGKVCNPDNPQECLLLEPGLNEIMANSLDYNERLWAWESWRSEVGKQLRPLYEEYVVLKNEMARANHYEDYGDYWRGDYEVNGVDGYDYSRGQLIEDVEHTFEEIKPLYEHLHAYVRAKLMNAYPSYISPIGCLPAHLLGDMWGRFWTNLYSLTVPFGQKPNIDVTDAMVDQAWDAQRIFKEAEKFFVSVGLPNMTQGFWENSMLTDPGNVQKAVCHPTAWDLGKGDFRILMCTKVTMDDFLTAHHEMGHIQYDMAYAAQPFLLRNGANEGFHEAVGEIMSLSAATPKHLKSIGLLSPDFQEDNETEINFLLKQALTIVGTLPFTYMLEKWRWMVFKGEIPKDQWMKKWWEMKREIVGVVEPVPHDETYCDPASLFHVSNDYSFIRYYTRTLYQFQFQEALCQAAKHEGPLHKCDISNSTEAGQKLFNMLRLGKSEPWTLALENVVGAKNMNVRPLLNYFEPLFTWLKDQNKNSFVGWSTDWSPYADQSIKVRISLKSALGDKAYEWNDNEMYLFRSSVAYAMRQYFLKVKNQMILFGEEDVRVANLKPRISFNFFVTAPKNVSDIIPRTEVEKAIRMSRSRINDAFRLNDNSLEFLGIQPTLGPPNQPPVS

human ACE2 = human ACE2 (human, UniProt Q9BYF1 18-740); experiment: SPR
human ACE2, sequence (Q9BYF1 18-740): as above

[7] = biological target: T1, SARS-CoV-2 membrane protein; experiment: SPR; remark: listed apart in the source

| Binder | Kd [2] [nM] | Kd [5] [nM] | Kd (SARS-CoV-2 S1 protein [6]) [nM] | IC50 (SARS-CoV-2 S1 RBD) [nM] | other results |
| --- | --- | --- | --- | --- | --- |
| 10-28 (antibody, V domains shown) VH: EVQLVESGGGLVQPGGSLRLSCAASGSIFSIGMGWFRQAPGKEREFVARIWWRSGATYYADSVKGRFTISADNSKNTAYLQMNSLKPEDTAVYYCAAISIFGRLKWGQGTLVTVSS | 5.6 | – | – | – | Kd [1]: 5.6 nM |
| 2-6 (antibody, V domains shown) VH: EVQLLESGGGLVQPGGSLRLSCAASGFTFSNYPMNWVRQAPGKGLEWVSTISGSGGNTFYADSVKGRFTISRDNSKNTLYLQMNSLRAEDTAVYYCVRHDEYSFDYWGQGTLVTVSS VL: DIQMTQSPSSLSASVGDRVTITCRASQSIDTYLNWYQQKPGKAPKLLIYAASALASGVPSRFSGSGSGTDFTLTISSLQPEDFATYYCQQSYSAPPYTFGQGTKVEIK | – | 0.036 | 7.2 | 0.754 | Kd [3]: < 0.036 nM; Kd (SARS-CoV-2 S1 protein [4]): 7.2 nM |
| 2-5 (antibody, V domains shown) VH: EVQLLESGGGLVQPGGSLRLSCAASGFTFSDFAMAWVRQAPGKGLEWVSAISGSGDITYYADSVKGRFTISRDNSKNTLYLQMNSLRAEDTAVYYCAREADGLHSPWHFDLWGQGTLVTVSS VL: DIQMTQSPSSLSASVGDRVTITCRASQSIHTYLNWYQQKPGKAPKLLIYAASALASGVPSRFSGSGSGTDFTLTISSLQPEDFATYYCQQSYSAPPYTFGQGTKVEIK | – | 1.7 | 0.223 | 3.83 | – |
| 2-2 (antibody, V domains shown) VH: EVQLLESGGGLVQPGGSLRLSCAASGFTFSRHAMNWVRQAPGKGLEWVSGISGSGDETYYADSVKGRFTISRDNSKNTLYLQMNSLRAEDTAVYYCARDLPASYYDSSGYYWHNGMDVWGQGTLVTVSS VL: DIQMTQSPSSLSASVGDRVTITCRASQTINTYLNWYQQKPGKAPKLLIYSASTLQSGVPSRFSGSGSGTDFTLTISSLQPEDFATYYCQQSYSTFTFGQGTKVEIK | – | 0.143 | 74 | 1.26 | – |
| 9-11 (antibody, V domains shown) VH: EVQLVESGGGLVQPGGSLRLSCAASGRTFGRRAMGWFRQAPGKEREFVAGISRGGGTNYADSVKGRFTISADNSKNTAYLQMNSLKPEDTAVYYCAAKGIWDYLGRRDFGDWGQGTLVTVSS | 0.593 | – | – | – | – |
| 10-27 (antibody, V domains shown) VH: EVQLVESGGGLVQPGGSLRLSCAASGRTFRRYSMGWFRQAPGKEREFVASITPGGNTNYADSVKGRFTISADNSKNTAYLQMNSLKPEDTAVYYCASRRRWLTPYIFWGQGTLVTVSS | 5.7 | – | – | – | – |
| ACE2 variant antibody 4-49 (VHH) VHH: EVQLVESGGGLVQPGGSLRLSCAASGRTFGDYIMGWFRQAPGKERESVAAINWSAGYTAYADSVKGRFTISADNSKNTAYLQMNSLKPEDTAVYYCARASPNTGWHFDHWGQGTLVTVSS | – | – | – | – | Kd (ACE2): 2.3 nM |
| 3-7 (antibody, V domains shown) VH: EVQLLESGGGLVQPGGSLRLSCAASGFMFGNYAMSWVRQAPGKGLEWVAAISGSGGSTYYADSVKGRFTISRDNSKNTLYLQMNSLRAEDTAVYYCAKDRGYSSSWYGGFDYWGQGTLVTVSS VL: DIQMTQSPSSLSASVGDRVTITCRASQSIGRYLNWYQQKPGKAPKLLIYASSSLQSGVPSRFSGSGSGTDFTLTISSLQPEDFATYYCQQSYSLPRTFGQGTKVEIK | – | – | – | – | Kd (human ACE2): 0.326 nM |
| 2-9 (antibody, V domains shown) VH: EVQLLESGGGLVQPGGSLRLSCAASGFTFPRYAMSWVRQAPGKGLEWVSTISGSGSTTYYADSVKGRFTISRDNSKNTLYLQMNSLRAEDTAVYYCARLIDAFDIWGQGTLVTVSS VL: DIQMTQSPSSLSASVGDRVTITCRASQRIGTYLNWYQQKPGKAPKLLIYAASNLEGGVPSRFSGSGSGTDFTLTISSLQPEDFATYYCQQNYSTTWTFGQGTKVEIK | – | – | – | 4.69 | – |
| 10-20 (antibody, V domains shown) VH: EVQLVESGGGLVQPGGSLRLSCAASGRTIRTMGWFRQAPGKEREFVATINSRGITNYADSVKGRFTISADNSKNTAYLQMNSLKPEDTAVYYCTTERDGLLWFRELFRPSWGQGTLVTVSS | – | – | – | – | Kd [7]: 66 nM |
